Assay results: patent US20080280313

Columns and labels:
[1] = molecular target: T1, CaM kinase II substrate (281-291) MHKNETVECLK (Calbiochem)
T1 chain: MHKNETVECLK

[2] = molecular target: T2, CKII substrate RRADDSDDDDD (Calbiochem)
T2 chain: RRADDSDDDDD

[3] = molecular target: T3, CKII substrate RRREEETEEE (New England Biolabs)
T3 chain: RRREEETEEE

[4] = molecular target: T4, Syntide-2 substrate PLARTLSVAGLPGKK (Calbiochem)
T4 chain: PLARTLSVAGLPGKK

[5] = molecular target: T5, CKI substrate DDDEESITRR (Promega)
T5 chain: DDDEESITRR

[6] = molecular target: T6, CKI substrate peptide RRKDLHDDEEDEAMSITA (Calbiochem)
T6 chain: RRKDLHDDEEDEAMSITA

[7] = molecular target: T7, β-casein (Sigma), P02666
T7 chain: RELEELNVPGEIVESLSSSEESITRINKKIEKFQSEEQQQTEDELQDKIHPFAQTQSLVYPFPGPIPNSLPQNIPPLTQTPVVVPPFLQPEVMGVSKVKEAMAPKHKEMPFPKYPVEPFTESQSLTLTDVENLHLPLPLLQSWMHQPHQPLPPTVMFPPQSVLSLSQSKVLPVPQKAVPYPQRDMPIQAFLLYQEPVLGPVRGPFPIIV

[8] = molecular target: T8, partially dephosphorylated α-casein (Sigma), P02662
T8 chain: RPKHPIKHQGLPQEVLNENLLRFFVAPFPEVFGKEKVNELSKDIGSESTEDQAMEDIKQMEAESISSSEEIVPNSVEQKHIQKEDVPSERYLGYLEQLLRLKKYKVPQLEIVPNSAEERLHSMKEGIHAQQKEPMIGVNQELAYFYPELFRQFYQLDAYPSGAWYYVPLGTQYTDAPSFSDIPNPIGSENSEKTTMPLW

[9] = molecular target: T9, kemptide LRRASLG (Promega)
T9 chain: LRRASLG

[10] = molecular target: T10, CKI phosphopeptide substrate KRRRALS(p)VASLPGL (New England Biolabs)
T10 chain: KRRRALSVASLPGL

B1: FLAGTgCKIβ, N-terminal FLAG epitope tagged Toxoplasma gondii casein kinase I beta (protein)
chain: AHHQDTRNHTGVGPSSSIPLKDLKIAGVWKIGRKIGSGSFGDIYKGLNSQTGQEVALKVESTKAKHPQLLYEYKLLKHLQGGTGIAQVFCCETAGDHNIMAMELLGPSLEDVFNLCNRTFSLKTILLLADQFLQRVEYIHSKNFIHRDIKPDNFLLGGAGNQNTIYVIDFGLAKKFRDPKTHQHIPYRENKNLTGTARYASISAHLGSEQSRRDDLEAVGYVLMYFCRGGTLPWQGIKANTKQEKYHKIMEKKMSTPVEVLCKGYPSEFATYLHYCRSLRFEDRPDYAYLKRLFRDLYIKEGYDDSDREFDWTVKLSSRSLGPPSSRAQHVLLSQDTRTRGKRETDRPVAARSGDRERGIHFSNGNVGNPSMATNPGGLSVMVHERTSLVDQGDRGSRETSTRKEDAKDGRWPGGRFSCLPLLCRRSPTKA
In the case of B1, the “kinase activity with peptide substrate” value [1] is reported as “failed to show concentration dependent kinase activity”, the “kinase activity with peptide substrate” value [2] is reported as “failed to show concentration dependent kinase activity” and the “kinase activity with peptide substrate” value [3] is reported as “failed to show concentration dependent kinase activity”. The “kinase activity with peptide substrate” value [4] was “failed to show concentration dependent kinase activity”, the “kinase activity with peptide substrate” value [5] was “failed to show concentration dependent kinase activity” and the Km(app) [6] was 15 µM. It also gave a Vmax(app) (nmole min^-1 mg^-1) [6] of 8, a Km(app) [7] of 12 µM and a Vmax(app) (nmole min^-1 mg^-1) [7] of 16. The Km(app) [8] was 5 µM, the Vmax(app) (nmole min^-1 mg^-1) [8] was 12 and the “kinase activity with peptide substrate” value [9] was “failed to show concentration dependent kinase activity”. It also gave a Km(app) [10] of 79 µM and a Vmax(app) (nmole min^-1 mg^-1) [10] of 37.

B2: native EtCKIα, partially purified from Eimeria tenella unsporulated oocysts (protein)
chain: MDVRVGGKYRLGRKIGSGSFGDIYLGTNISTGDEVAIKLESVRSRHPQLIYESKLYKILTGGIGIPTLYWYGIEGDYNVMIIELLGPSLEDLFSICNRKLSLKTVLMLADQMLNRIEFVHSRHFIHRDIKPDNFLIGRGKKMSIVFAIDFGLAKKYRDPRTQSHIPYREGKNLTGTARYASVNTHLGIEQSRRDDLEALGYVLMYFNRGSLPWQGLKATTKKDKYDKIMEKKMSTPIEVLCKQFPFEFITYLNYCRSLRFEDRPDYSYLRRLFKDLFFREGYQYDFIFDWTFLHAERERERQRRSMVNQGAESGNQWRRDASGRDPLGRLPQLEP
B2 was tested, and the “Vmax relative to the α-casein substrate” value [10] was “the phosphopeptide yielded a much higher Vmax (2.5× greater activity) than the α-casein substrate”.
